{"source": "patent US20120244577A1", "about": "(Zymeworks, published 2012)", "proteins": {"B1": {"name": "Albumin based Transporter polypeptide 1-Ver 2 (other)", "chain": "DAHKSEVAHRFKDLGEENFKALVLIAFAQYLQQCPFEDHVKLVNEVTEFAKTCVADESAENCDKSLHTLFGDKLCTVATLRETYGEMADCCAKQEPERNECFLQHKDDNPNLPRLVRPEVDVMCTAFHDNEETFLKKYLYEIARRHPYFYAPELLFFAKRYKAAFTECCQAADKAACLLPKLDELRDEGKASSAKQRLKCASLQKFGERAFKAWAVARLSQRFPKAEFAEVSKLVTDLTKVHTECCHGDLLECADDRADLAKYICENQDSISSKLKECCEKPLLEKSHCIAEVENDEMPADLPSLAADFVESKDVCKNYAEAKDVFLGMFLYEYARA", "notes": "First chain of ABH2; also called F1; ABH2 segment 1:337"}, "B2": {"name": "Albumin based Transporter polypeptide 1-Ver 1 (other)", "chain": "DAHKSEVAHRFKDLGEENFKALVLIAFAQYLQQCPFEDHVKLVNEVTEFAKTCVADESAENCDKSLHTLFGDKLCTVATLRETYGEMADCCAKQEPERNECFLQHKDDNPNLPRLVRPEVDVMCTAFHDNEETFLKKYLYEIARRHPYFYAPELLFFAKRYKAAFTECCQAADKAACLLPKLDELRDEGKASSAKQRLKCASLQKFGERAFKAWAVARLSQRFPKAEFAEVSKLVTDLTKVHTECCHGDLLECADDRADLAKYICENQDSISSKLKECCEKPLLEKSHCIAEV", "notes": "also called ABH1 segment 1:293"}}, "biological_target": "the molecule itself", "experiment": "co-expression in CHO-3E7, gel analysis (FIG. 6)", "protocol": "High level and high-throughput recombinant protein production by transient transfection of suspension-growing […] CHO-3E7 was performed. See Table 3 for construct boundaries of the two scaffolds described here: Albumin based heteromultimer 1 (ABH1) and Albumin based heteromultimer 2 (ABH2). Albumin based heteromultimer 2 comprises one disulfide bond between the two transporter polypeptides, while Albumin based heteromultimer 1 is formed entirely by non-covalent interactions. FIG. 6A provides SDS-PAGE (non-reducing) gel analysis of the two heteromultimer constructs (ABH1 and ABH2), after co-expression (different DNA transfection ratios are shown). WT full-length HSA is shown as control. As expected, ABH2 retains the disulfide linkage in non-reducing SDS-PAGE, with a MW roughly double the non-disulfide linked ABH1. FIG. 6B provides Native gel analysis of the two Albumin based heteromultimer constructs (ABH1 and ABH2), after co-expression (1:1 DNA level). WT full-length HSA is shown as control. […]\nWT-HSA and the two Albumin based heteromultimers (ABH1 and ABH2) were expressed in CHO-3E7 cell line grown in suspension in FreeStyle F17 medium (Invitrogen) supplemented with 0.1% w/v pluronic and 4 mM glutamine. […] At 24-48 hours, GFP positive cells should be between 30-60% as determined by flow cytometry.", "data": [{"protein": "B1", "values": [{"measurement": "binding result", "result": "no binding"}]}, {"protein": "B2", "values": [{"measurement": "binding result", "result": "no binding"}]}]}
